This passage reports Bottom, IC50 and EC50 results from patent US20150329642A1 (Genmab, published 2015).

As a reminder, the IC50 is the point on the concentration scale where inhibition reaches its midpoint. As usually defined, the EC50 is the midpoint of the concentration-response curve. Lower therefore signals an effect from little substance.

Substitutions are numbered along the chain they refer to. “And” between values parts separate entries of the source, which are not always exact repeats. Equal entries are not always repeated.

Assay [1] addresses T1, recombinant human c-Met extracellular domain (R&D systems) (human, UniProt P08581 25-932).
T1 construct: extracellular domain; Bought reagent; also called coated extracellular domain of c-Met; recombinant c-Met
Description: competition ELISA, residual Europium-HGF signal at 615 nm at the lower plateau of the fit; sheet prints no competing mAb ~66000, no HGF-Europium ~600; lower panel. The protocol:
(§1) ELISA wells were coated overnight at 4° C. with 0.5 μg/mL recombinant human c-Met extracellular domain (R&D systems, Minneapolis, USA) diluted in PBS. Next, the ELISA wells were washed with PBST (PBS supplemented with 0.05% Tween-20 [Sigma-Aldrich, Zwijndrecht, The Netherlands]) and blocked for one hour at room temperature (RT) with PBST supplemented with 2% (v/v) chicken serum (Gibco, Paisley, Scotland). […] Mean fluorescence intensity at 615 nm was measured using the EnVision 2101 Multilabel reader (PerkinElmer) applying the following settings: Lance/Delfia dual mirror, emission filter 615, excitation filter 340 nm, delay time 400 μs, window 400 μs, 100 flashes, 2000 μs per cycle and bidirectional row-by-row reading. To determine IC₅₀ values, the binding curves were analyzed with non-linear regression (sigmoidal dose-response with variable slope, top-values constrained to a shared value for all data-sets) using GraphPad Prism V4.03 software (GraphPad Software, San Diego, Calif., USA).
(§2) FIG. 5 depicts representative examples of HGF binding inhibition curves of anti-c-Met antibodies for binding to the extracellular domain of recombinant human c-Met. 5D5 was used as positive control antibody. All anti-c-Met antibodies in the experiment shown were able to compete with Europium^{3±}-conjugated HGF for binding to recombinant c-Met. […] Without adding Europium³⁺-conjugated HGF, roughly ˜600 relative fluorescent units (RFU) were detected, indicating the signal when maximal inhibition is accomplished. When binding of Europium³⁺-conjugated HGF was not inhibited, approximately ˜66,000 RFU were detected.

Assay [2] addresses T1, recombinant human c-Met extracellular …. Description: competition ELISA on coated recombinant c-Met extracellular domain; blocked ligand Europium-conjugated HGF; column headed EC50 on the sheet, called IC50 in paragraph 270; lower panel. The protocol:
as §1, §2
On the technique in general: An ELISA detects its analyte on a solid surface through an enzyme-linked reagent.

Assay [3] deals with T2, rhHGF R/Fc Chimera (R&D Systems; Cat.358MT/CF) (human, UniProt P08581 25-932).
T2 construct: Bought reagent; Fc part of the bought chimera not given; not described
Description: ELISA on coated rhHGF R/Fc Chimera. The protocol:
c-Met binding properties of the mutants were tested in an ELISA. ELISA plate wells were coated overnight at 4° C. with rhHGF R/Fc Chimera (R&D Systems; Cat.358MT/CF) in PBS (1 μg/mL). Next, the wells were washed with PBST (PBS supplemented with 0.05% Tween-20 [Sigma-Aldrich, Zwijndrecht, The Netherlands]) and blocked for one hour at room temperature (RT) with PBSTC (PBST supplemented 2% [v/v] chicken serum [Gibco, Paisley, Scotland]). Subsequently, the wells were washed with PBST and incubated for one hour at RT with the anti-cMet antibodies and variants serially diluted in PBSTC (10 μg/mL in 4-fold dilutions). […] After washing, the reaction was visualized by a 15 min incubation with 2,2′-azino-bis(3-ethylbenzothiazoline-6-sulfonic acid) (ABTS: dilute one ABTS tablet in 50 mL ABTS buffer [Roche Diagnostics, Almere, The Netherlands]) at RT protected from light. The colorization was stopped by adding an equal volume of oxalic acid (Sigma-Aldrich, Zwijndrecht, The Netherlands). […] at 405 nm was measured on a microtiter plate reader (Biotek Instruments, Winooski, USA).

For assay [4], the target named is T3, human c-Met, membrane-bound on cells (human, UniProt P08581 25-1390).
T3 construct: whole, on cells; A431 cells carry on average 30,000 copies of c-Met per cell (Qifi); also called c-Met expressed on A431 cells; c-Met on A549 cells
Description: flow cytometry on A431 cells (PE goat anti-human IgG); third panel; curve not saturated. As to the method: (§3) The binding of anti-c-Met antibodies and monovalent forms thereof (also termed “UniBody molecules” herein, see Example 5) to A431 cells expressing membrane-bound c-Met (purchased at ATCC, CRL-1555) was tested using flow cytometry (FACS Canto II, BD Biosciences). […] Binding of anti-c-Met antibodies and UniBody molecules was detected using a Phycoerythrin-conjugated goat-anti-human IgG antibody (Jackson). IgG1-5D5 was used as positive control antibody, and HuMab-KLH was used as isotype control antibody. EC₅₀ values were determined by means of non-linear regression (sigmoidal dose-response with variable slope) using GraphPad Prism V4.03 software (GraphPad Software, San Diego, Calif., USA).
(§4) Also maximum binding levels were unchanged between IgG1's and UniBody molecules. For antibodies 005, 006, 008, 035, 045 and 058, on the other hand, a more than 2-fold […] as well as a decrease in maximum binding level was observed when comparing IgG1 with their UniBody counterpart. This was most likely due to the […] (Kd) of these antibodies (see Example 14).

The target in assay [5] is T3, human c-Met, membrane-bound on cells. The assay is described as follows: flow cytometry on A431 cells (PE goat anti-human IgG); third panel. The protocol:
as §3, §4
On the technique in general: In flow cytometry, cells or beads pass a laser one at a time.

Assay [6] has the same target. The assay is described as follows: flow cytometry on A431 cells (PE goat anti-human IgG); top panel. The protocol: as §3, §4

B1: anti-c-Met HuMab 101 (IgG1) (antibody, V domains shown)
VH: QVQLVQSGGEVKKPGASVKVSCKASGYTFTRHGITWVRQAPGQGLEWMGWISADNGNTNYAQKFQDRVTMTTDTSTSTAYMELRSLRSDDTAVYFCARVFRYFDWLLPYFDYWGQGTLVTVST
VL: not shown
For the molecule B1, the Bottom in assay [1] was found to be 8380 RFU. For the same molecule, the IC50 in assay [2] turned out to be 0.0558 µg/mL.

B2: IgG1-1016-069 (antibody, V domains shown)
VH: QVQLVQSGAEVKKPGASVKVSCETSGYTFTSYGISWVRQAPGHGLEWMGWISAYNGYTNYAQKLQGRVTMTTDTSTSTAYMELRSLRSDDTAVYYCARDLRGTNYFDYWGQGTLVTVSS
VL: DIQMTQSPSSVSASVGDRVTITCRASQGISNWLAWFQHKPGKAPKLLIYAASSLLSGVPSRFSGSGSGTDFTLTISSLQPEDFATYYCQQANSFPITFGQGTRLEIK
notes: also called clone 069; TH1016-069
Consider B2, for which the EC50 in assay [3] was 0.0495 µg/mL and 0.0454 µg/mL. In addition, the Bottom in assay [1] amounted to 15000 RFU. Also, in assay [2], the IC50 amounted to 0.0267 µg/mL.

B3: anti-c-Met HuMab 181 (IgG1) (antibody, V domains shown)
VH: B2 VH with E23K, T24A, H43Q, A53T, N104A
VL: B2 VL with F36Y
notes: also called TH1016-181; PC1016-181
Regarding B3, in assay [1], the Bottom stood at 16300 RFU. Besides, in assay [2], the IC50 turned out to be 0.0103 µg/mL.

B4: IgG1-024 (antibody, V domains shown)
VH: EVQLLESGGGLVQPGGSLRLSCVASGFTFSSYAMSWVRQAPGKGLEWVSAISGSSGGSTYYVDSVKGRFTISRANSKNTLYLQMNSLRAEDTAVYYCAKDLDRGWMGYFGYWGQGTLVTVSS
VL: DIQMTQSPSSVSASVGDRVTITCRASQGISSWLAWYQHKPGKAPKLLIYAASSLQSGVPSRFSGSGSGTDFTLTISSLQPEDFATYYCQQANSFPTFGQGTRLEIK
notes: also called TH1016-024; PC1016-024
B4: the EC50 in assay [4] was approximately 3.19 nM.

B5: anti-c-Met HuMab 045 (IgG1) (antibody, V domains shown)
VH: EVQLLESGGGLVQPGGSLRLSCAASGFTFSSYAMSWVRQAPGKGLEWVSVISGSGGITYYADSVKGRFTISRDNSKNTLYLQMNSLRAEDTAVYYCARDRGWGSDYWGQGTLVTVSS
VL: EIVLTQSPATLSLSPGERATLSCRASQSVSSYLAWYQQKPGQAPRLLIYDASNRATGIPARFSGSGSGTDFTLTISSLEPEDFAVYYCQQRSNWPFTFGPGTKVDIK
notes: also called TH1016-045; PC1016-045
Turning to B5, in assay [5], the EC50 was 0.692 nM.

B6: anti-c-Met HuMab 035 (IgG1) (antibody, V domains shown)
VH: EVQLVQSGAEVKKPGESLKISCKGSGYSFTSYWIGWVRQMPGKGLEWMGIIYPGDSDTRYSPSFQGQVTISADKSISTAYLQWNSLKASDTAMYYCARQEITGEFDYWGQGTLVTVSS
VL: AIQLTQSPSSLSASVGDRVTITCRASQGISSALAWYQQKPGKAPKLLIYDASSLESGVPSRFSGSGSGTDFTLTISSLQPEDFATYYCQQFNSYPMYTFGQGTKLEIK
notes: also called P1016-035; TH1016-035-D09
For the molecule B6, it took 1.78 nM to reach a half-maximal effect in assay [5] (EC50).

B7: anti-c-Met HuMab 006 (IgG1) (antibody, V domains shown)
VH: QVQLVQSGAEVKKPGSSVKVSCKASGGTFSSFGIGWVRQAPGQGLEWMGRIFPILGTANYAQMFQGRVTITADKSTSTAYMELTSLRSEDTAVYYCARDVGYDSADAFDIWGQGTMVTVSS
VL: DIQMTQSPSSLSASVGDRVTITCRASQGISSWLAWYQQKPEKAPKSLIYAASSLQSGVPSRFSGSGSGTDFTLTISSLQPEDFATYYCQQYNSYPPTFGQGTKVEIK
notes: also called TH1016-006; PC1016-006
In assay [6], B7 showed an EC50 of 2.32 nM.

B8: anti-c-Met HuMab 098 (IgG1) (antibody, V domains shown)
VH: QVQLVQSGAEVKKPGASVKVSCKASGYTFTNFGISWVRQAPGQGLEWMGWISAFNGHTDYSQKVQGRVTMTTDTSTSTAYMELRSLRSDDTAVFYCARSHYYGSGSPFDYWGQGTLVTVSS
VL: B7 VL with S31N, Q89H, N92K, P96W
notes: also called TH1016-098; PC1016-098
As to B8, the Bottom in assay [1] came out at 12700 RFU. Also, the IC50 in assay [2] amounted to 0.0135 µg/mL.
